The target in assay [1] is T1, c-MAF (Q1): fragment of c-MAF including Aa 19-208 (Homo sapiens (Human), UniProt O75444 19-208).
T1 construct: Recombinant antigen preparation used in SPR; also called c-MAF fragment
T1 sequence: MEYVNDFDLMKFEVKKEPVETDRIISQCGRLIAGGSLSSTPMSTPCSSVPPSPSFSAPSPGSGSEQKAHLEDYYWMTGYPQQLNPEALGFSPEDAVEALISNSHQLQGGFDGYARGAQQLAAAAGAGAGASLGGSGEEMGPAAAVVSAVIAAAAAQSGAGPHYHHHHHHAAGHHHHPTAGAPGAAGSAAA
The assay is described as follows: SPR, Biacore T200, 25 C; antibody captured on Protein A, c-MAF (Q1) as analyte at 6.5 nM; single concentration fit, 1:1 model. As to the method: Test measurements were conducted to confirm protein A-binding of the antibody INB-1-11-8 and to select appropriate capture levels for the kinetic measurements of the analyte. A capture level of 240 RU was chosen for the measurement with c-MAF (Q1), resulting in an expected Rmax of ca 64 RU for two 19.6 kDa antigens binding per antibody molecule. To generate sufficiently high binding signals for the peptide, a higher capture level of […] was chosen, also resulting in an expected Rmax of ca 30 RU. Serial dilutions of the antigen were injected for 180 s, followed by a 600 s buffer injection for off-rate determination (see FIG. 6). For the c-MAF fragment the molar concentrations used for the serial dilutions were calculated based on the concentrations determined by CFCA. The kinetic measurements were performed twice to confirm the binding behavior.
Based on this preliminary data, an affinity in the nM-range has been roughly estimated for the interaction. The binding is characterized by a very fast association rate and a fast dissociation rate, i.e. the binding is not very tight.

The assay “Peptide 1 (epitope …)” has as its target T2, Peptide 1 (epitope 83-EQKAHLEDYYWMTGYPQQ-100 of c-MAF of human origin) conjugated to BSA (human, also: conjugated to BSA).
T2 construct: also called antigen
T2 peptide: EQKAHLEDYYWMTGYPQQ
As to the kind of experiment: antigen-specific ELISA: epitope peptide conjugated to BSA on the plate, anti-rabbit secondary antibody conjugated to alkaline phosphatase. As to the method:
An Antigen-specific ELISA was used to test the antibody sensitivity for the antigen. To this end, the epitope, Peptide 1, described above, was conjugated to BSA. This was attached to a the plate surface where the ELISA is performed and washed. The INB-1-11-8 c-MAF specific antibody was then applied so that it could bind to the antigen. Following, the incubation time and wash with TBST, a secondary antibody specific for rabbit antibodies and conjugated to Alkaline Phosphatase was used to score binding of the primary antibody to the antigen. Several dilutions were used to test the titer of the antibody, which is an indication of the affinity of the antibody for its antigen (FIG. 3A).

One molecule from US20170369589A1 (INBIOMOTION S L, published 2017) can be followed below.

No end group written: not given here.

B1: INB-1-11-8 c-MAF specific monoclonal antibody (rabbit) (antibody, V domains shown)
VH: QSLEESGGRLVTPGTPLTLTCTASGFSLNNYPMTWVRQAPGKGLDYIGVINNSGETAYATWAKRRFTISRTSTTLYLKIASPTIEDTATYFCARGGPVSSDMWGPGTLVIVSS
VL: AQVLTQTASPVSAVVGGTVTINCQSSQSVYRGDWLAWYQQRPGQPPKLLIYGASTLASGVPSRFKGSGSGTHFTLTISDLDCDDAATYYCAGGFSGHIYDFGGGTEVVVKG
notes: Rabbit monoclonal antibody; also called Clone ID11-8; antibody INB-1-11-8
In assay [1], B1 displayed an equilibrium dissociation constant (Kd) of 1.1 nM, a koff of 0.0056 s⁻¹ and a kon of 5.3e+06 M⁻¹ s⁻¹. Moreover, the binding result in the assay with Peptide 1 (epitope …) is given as “binds”.
